The results in this text go back to patent US20060286609A1 (BIOCHECK, published 2006).

Test [1] concerns the target Human Id1: Histidine (human) (UniProt P41134). The experiment in a line: sandwich ELISA, 5-3-coated wells, human Id1:His 25.0 ng/ml, detected with rabbit polyclonal B-5133-HRP. Background: ELISA stands for enzyme-linked immunosorbent assay.
The target in test [2] is T1, glutathione S-transferase (GST) (UniProt P08515 1-218 = GST).
T1 construct: Coated on wells as control for the fusion partner of the immunogen
T1 sequence (P08515 whole entry, the tested form may be a part): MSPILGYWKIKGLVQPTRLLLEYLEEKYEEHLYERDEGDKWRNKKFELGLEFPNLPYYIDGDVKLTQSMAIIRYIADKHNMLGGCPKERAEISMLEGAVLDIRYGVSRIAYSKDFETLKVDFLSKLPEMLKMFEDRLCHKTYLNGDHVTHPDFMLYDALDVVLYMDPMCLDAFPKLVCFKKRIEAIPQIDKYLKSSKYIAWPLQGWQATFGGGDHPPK
The test can be described thus: ELISA, coated antigen, Ab 0 ug/ml (blank). The protocol:
(§1) Incubate plates at 2-8° C. overnight (16-24 hours). [0145] 11. Shake off the BSA solution. [0146] 12. Dispense 250 μL of 2.5% sucrose solution into each well. [0147] 13. Incubate plates at 2-8° C. for 4 hours. [0148] 14. Shake off sucrose solution. [0149] 15. Dry in vacuum at room temperature overnight. Screening Method [0150] 1. Dispense 100 μL of antibody diluent, diluted rabbit polyclonal anti-Id1 into appropriate wells. […] 2. Incubate at room temperature with mechanical shaking at 750 rpm for 90 minutes. [0152] 3. Remove the incubation mixture by flicking plate content into an appropriate waste container, followed by rinsing the wells 5 times with distilled water. […] 4. Strike the wells sharply onto absorbent paper or paper towels to remove all residual water droplets. [0154] 5. Dispense 100 μL of Goat Anti-Rabbit IgG-HRP Conjugate Reagent into each well. Gently mix for 5 seconds. [0155] 6. Incubate at room temperature with mechanical shaking at 750 rpm for 90 minutes. […] 7. Repeat procedures 3 and 4. [0157] 8. Dispense 100 μL of TMB Reagent into each well. Gently mix for 5 seconds. [0158] 9. Incubate at room temperature with mechanical shaking at 750 rpm for 20 minutes. [0159] 10. Add 100 μL of Stop Solution (1N HCl) into each well. [0160] 11. Gently mix for 10 seconds to ensure a complete mixing. […] 12. Read optical density (absorbance) at 450 nm. Results from this assay were used to select the rabbit sera with the highest antibodies titer that selectively reacts with mouse Id1 or human Id1 or both.
(§2) A comparison was carried out between the reactivity of the rabbit monoclonal anti-mouse Id1, clone #BCH-1/#37-2, of this invention and the mouse monoclonal anti-mouse/human Id1 from BD Pharmingen with the following antigens prepared in Example 5: mouse Id1:His, human Id1:His, human Id2:His, human Id3:His, and GST. These antigens and protein were used to coat the wells.
(§3) Materials and methods were those described in Example 9 except (a) Pharmingen's mouse monoclonal anti-mouse Id1 was used in addition to the rabbit monoclonal anti-mouse Id1 (Example 10), and (b) goat anti-mouse IgG-HRP conjugate was used to process the wells treated with the Pharmingen monoclonal antibody and polyclonal goat anti-rabbit IgG-HRP conjugate was used to process wells treated with rabbit monoclonal anti-mouse Id1.

Test [3] addresses T2, Human Id3: Histidine (human, UniProt Q02535 1-119, limits assumed).
T2 construct: E. coli fusion protein (vector pGW07); also called h-Id3: His; not shown: His-tag
T2 sequence (looked up): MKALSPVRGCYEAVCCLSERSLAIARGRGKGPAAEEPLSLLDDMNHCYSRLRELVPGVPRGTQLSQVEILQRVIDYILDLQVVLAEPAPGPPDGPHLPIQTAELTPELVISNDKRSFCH
The experiment in a line: ELISA, coated antigen, Ab 0 ug/ml (blank). Here is the method: as §1, §2, §3

For test [4], the target named is T3, Human Id2: Histidine (human, UniProt Q02363 1-134, limits assumed).
T3 construct: E. coli fusion protein (vector pGW07); also called h-Id2: His; not shown: His-tag
T3 sequence (looked up): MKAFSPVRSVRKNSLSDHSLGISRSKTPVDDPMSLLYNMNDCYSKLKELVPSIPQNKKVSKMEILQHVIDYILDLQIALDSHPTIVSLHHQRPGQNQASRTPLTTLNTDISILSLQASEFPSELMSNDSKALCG
The test can be described thus: ELISA, coated antigen, Ab 0 ug/ml (blank). The protocol: as §1, §2, §3

In test [5] the target is T4, Mouse Id1: Histidine (mouse, UniProt P20067-2 1-148).
T4 construct: E. coli fusion protein (vector pGW07); also called m-Id1-His; not shown: His-tag
T4 sequence: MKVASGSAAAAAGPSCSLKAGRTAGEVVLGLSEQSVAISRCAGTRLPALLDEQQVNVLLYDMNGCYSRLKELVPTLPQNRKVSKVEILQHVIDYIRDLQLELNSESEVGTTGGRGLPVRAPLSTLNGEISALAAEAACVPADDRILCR
The experiment in a line: ELISA, coated antigen, Ab 0 ug/ml (blank). Here is the method: as §1, §2, §3

In test [6] the target is T1, glutathione S-transferase (GST). The test can be described thus: ELISA, coated antigen, Ab 1.00 ug/ml. The protocol:
as §1, §2, §3

The target in test [7] is T2, Human Id3: Histidine. The test can be described thus: ELISA, coated antigen, Ab 1.00 ug/ml. Here is the method:
as §1, §2, §3

For test [8], the target named is T3, Human Id2: Histidine. The experiment in a line: ELISA, coated antigen, Ab 1.00 ug/ml. Here is the method: as §1, §2, §3
Test [9] addresses T4, Mouse Id1: Histidine. The experiment in a line: ELISA, coated antigen, Ab 1.00 ug/ml. Here is the method:
as §1, §2, §3

Test [10] addresses Human Id1: Histidine (human) (UniProt P41134). The experiment in a line: ELISA, coated antigen, Ab 1.00 ug/ml.
For test [11], the target named is T1, glutathione S-transferase (GST). The test can be described thus: ELISA, coated antigen, Ab 0.50 ug/ml. Here is the method: as §1, §2, §3
For test [12], the target named is T2, Human Id3: Histidine. The experiment in a line: ELISA, coated antigen, Ab 0.50 ug/ml. The protocol: as §1, §2, §3
The target of test [13] is T3, Human Id2: Histidine. The experiment in a line: ELISA, coated antigen, Ab 0.50 ug/ml. The protocol: as §1, §2, §3
Test [14] concerns the target T4, Mouse Id1: Histidine. The test can be described thus: ELISA, coated antigen, Ab 0.50 ug/ml. The protocol: as §1, §2, §3
The target of test [15] is Human Id1: Histidine (human) (UniProt P41134). The test can be described thus: ELISA, coated antigen; relative to mouse Id1.
Sequence of Human Id1: Histidine (human) (P41134 whole entry): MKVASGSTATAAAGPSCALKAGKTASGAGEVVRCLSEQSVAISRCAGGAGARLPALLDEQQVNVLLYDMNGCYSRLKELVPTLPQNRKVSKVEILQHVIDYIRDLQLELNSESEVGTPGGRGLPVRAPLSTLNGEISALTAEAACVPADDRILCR
The target of test [16] is T2, Human Id3: Histidine. The experiment in a line: ELISA, coated antigen, Ab 0.10 ug/ml. Here is the method:
as §1, §2, §3

Test [17] deals with T3, Human Id2: Histidine. The test can be described thus: ELISA, coated antigen, Ab 0.10 ug/ml. Here is the method: as §1, §2, §3

For “rabbit monoclonal anti-human Id1, clone #BCH-2/#5-3 (antibody)”, in [1], the A450 came to 1.94 A450.

B1: rabbit monoclonal anti-mouse Id1, clone #BCH-1/#37-2 (antibody, V domains shown)
VH: QSVEESGGRLVTPGTPLTLTCKVSGFDINSYAMDWFRQAPGKGLEWIGMMSTRGNTYYTSWAKGRFTISKTSSTTVDLKMTSLTTEDTATYFCARGGLWGPGTLVTVSS
VL: RVLTQTASPVSAAVGGTVTINCQASQSVYNGNRLGWYQLKPGQSPKELIHDASTLASGVPSRFRGSGSGTQFTLTINDVQCDDAATYYCVGSYACSTGDCNVFGGGTEVVVK
notes: Rabbit IgG from hybridoma, Protein G purified; also called m Id1 MoAb 37-2; Rabbit Monoclonal Anti-Mouse Id1 (#37-2)
Take B1: the A450 in test [2] is 0.047 A450; with Human Id3: Histidine [3] it was 0.046 A450; with Human Id2: Histidine [4], 0.045 A450; with Mouse Id1: Histidine [5], 0.047 A450; in test [6], 0.062 A450; with Human Id3: Histidine [7], 0.063 A450. Moreover, the A450 worked out at 0.053 A450 with Human Id2: Histidine [8]; 2.88 A450 with Mouse Id1: Histidine [9]; 0.113 A450 in test [10]; 0.053 A450 in [11]; 0.052 A450 with Human Id3: Histidine [12]; 0.052 A450 in the test with Human Id2: Histidine [13]. For the same molecule, the A450 with Mouse Id1: Histidine [14] was 2.46 A450; with Human Id3: Histidine [16] it was 0.048 A450; with Human Id2: Histidine [17], 0.049 A450. In addition, the Cross-reactivity (%) in test [15] was < 1%.
